Experiments:
Cdh1 = target: T1, Cdh1 (human, UniProt Q9UM11 1-496, limits assumed); experiment: IP-immunoblot of transfected Parkin domain constructs, mitotic cells (FIG. 10A)
T1 construct: Protein in cell lysate, co-immunoprecipitation
Text: Cells were transfected with the indicated plasmids, and mitotic cells were collected for immunoprecipitation (IP)-immunoblot analysis (right).

Parkin (endogenous) = target: T2, Parkin (endogenous) (human, UniProt O60260 1-465); experiment: not told (data not shown)
T2 construct: Endogenous protein immunoprecipitated from cell lysates; also called Endogenous Parkin

Cdc20 = target: T3, Cdc20 (human, UniProt Q12834 1-499); experiment: IP-immunoblot of transfected cells with or without nocodazole (FIG. 9K)
T3 construct: Protein in cell lysate, co-immunoprecipitation
T3 sequence (Q12834 whole entry): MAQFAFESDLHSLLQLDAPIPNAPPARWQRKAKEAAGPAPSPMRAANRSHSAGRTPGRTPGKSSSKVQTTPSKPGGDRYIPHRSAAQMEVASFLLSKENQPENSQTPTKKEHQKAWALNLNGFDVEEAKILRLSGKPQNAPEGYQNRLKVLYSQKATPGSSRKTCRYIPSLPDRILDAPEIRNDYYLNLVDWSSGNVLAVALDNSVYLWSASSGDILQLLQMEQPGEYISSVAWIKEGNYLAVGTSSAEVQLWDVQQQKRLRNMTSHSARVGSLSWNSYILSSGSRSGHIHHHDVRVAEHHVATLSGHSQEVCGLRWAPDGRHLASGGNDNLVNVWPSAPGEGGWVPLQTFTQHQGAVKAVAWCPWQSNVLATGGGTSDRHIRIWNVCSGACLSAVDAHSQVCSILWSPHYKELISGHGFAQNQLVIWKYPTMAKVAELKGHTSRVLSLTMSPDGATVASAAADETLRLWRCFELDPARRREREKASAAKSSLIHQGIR
Experimental: (H) Cells were transfected with the indicated plasmids, and then treated with nocodazole. Cell lysates were then blotted with the indicated antibodies. […] (J and K) Cells were treated with chemical (J) or transfected with indicated constructs (K).

T1 sequence (Q9UM11 whole entry, the tested form may be a part): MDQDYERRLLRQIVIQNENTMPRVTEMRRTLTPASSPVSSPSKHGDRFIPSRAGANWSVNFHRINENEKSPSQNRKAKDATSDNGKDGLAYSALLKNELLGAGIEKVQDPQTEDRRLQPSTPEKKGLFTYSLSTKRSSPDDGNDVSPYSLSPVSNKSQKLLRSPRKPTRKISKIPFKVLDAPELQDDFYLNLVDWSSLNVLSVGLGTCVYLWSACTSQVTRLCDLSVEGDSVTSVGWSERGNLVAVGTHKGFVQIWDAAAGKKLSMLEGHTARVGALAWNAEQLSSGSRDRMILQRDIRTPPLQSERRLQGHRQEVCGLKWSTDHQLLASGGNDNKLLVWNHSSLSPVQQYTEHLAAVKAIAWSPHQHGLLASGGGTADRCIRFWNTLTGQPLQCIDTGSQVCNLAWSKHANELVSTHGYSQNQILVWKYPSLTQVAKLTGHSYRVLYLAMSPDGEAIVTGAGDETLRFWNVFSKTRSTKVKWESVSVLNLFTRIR

B1: Parkin RING1 domain (other, UniProt O60260 238-293, looked up, not shown: small tags and cut ends)
chain: CITCTDVRSPVLVFQCNSRHVICLDCFHLYCVTRLNDRQFVHDPQLGYSLPCVAGC
notes: domain: RING1
binding result (Cdh1): no binding

B2: UbcH10 (enzyme, UniProt O00762 2-179, looked up)
chain: ASQNRDPAATSVAAARKGAEPSGGAARGPVGKRLQQELMTLMMSGDKGISAFPESDNLFKWVGTIHGAAGTVYEDLRYKLSLEFPSGYPYNAPTVKFLTPCYHPNVDTQGNICLDILKEKWSALYDVRTILLSIQSLLGEPNIDSPLNTHAAELWKNPTAFKKYLQETYSKQVTSQEP
notes: also called the E2 for APC/C in mitosis
binding result (Parkin (endogenous)): no binding

B3: Parkin S378A (enzyme, UniProt O60260 1-465, looked up, not shown: large carriers)
chain: MIVFVRFNSSHGFPVEVDSDTSIFQLKEVVAKRQGVPADQLRVIFAGKELRNDWTVQNCDLDQQSIVHIVQRPWRKGQEMNATGGDDPRNAAGGCEREPQSLTRVDLSSSVLPGDSVGLAVILHTDSRKDSPPAGSPAGRSIYNSFYVYCKGPCQRVQPGKLRVQCSTCRQATLTLTQGPSCWDDVLIPNRMSGECQSPHCPGTSAEFFFKCGAHPTSDKETSVALHLIATNSRNITCITCTDVRSPVLVFQCNSRHVICLDCFHLYCVTRLNDRQFVHDPQLGYSLPCVAGCPNSLIKELHHFRILGEEQYNRYQQYGAEECVLQMGGVLCPRPGCGAGLLPEPDQRKVTCEGGNGLGCGFAFCRECKEAYHEGECAAVFEASGTTTQAYRVDERAAEQARWEAASKETIKKTTKPCPRCHVPVEKNGGCMHMKCPQPQCRLEWCWNCGCEWNRVCMGDHWFDV
notes: Transfected construct, IP-immunoblot with or without nocodazole
binding result (Cdc20): no binding

— US20180344736A1 (ROCHESTER, published 2018)
